Data taken from US20120220530A1 (NOVOZYMES BIOPHARMA DK A S, published 2012).

Experiments:
[1] = biological target: T1, glutathione-S-transferase (GST)-fused shFcRn (human, UniProt P55899 24-290; P61769 21-119, limits assumed); test: ELISA: albumin coated at the concentration on the axis, shFcRn-GST in solution, pH 6.0
T1 construct: Made as in Berntzen et al. 2005 / FEBS J. 2008; also called shFcRn-GST; GST-tagged shFcRn; not shown: GST tag
Method: One hundred μl of the substrate tetramethylbenzidine (TMB) (Calbiochem) was added to each well and incubated for 45 min before 100 μl of 0.25 M HCl was added. The absorbance was measured at 450 nm using a Sunrise TECAN spectrophotometer (TECAN, Maennedorf, Switzerland). The same ELISA was repeated with PBS/T pH 7.4.
Commercially available animal albumin (either Sigma-Aldrich or Calbiochem) were further purified as described in Andersen et al (2010). J. Biol. Chem. 285, (7), 4826-4836.

[2] = biological target: T2, mouse serum albumin (mouse, UniProt P07724 25-608); test: SPR, FcRn immobilized, 1:1 Langmuir model
T2 construct: mature; also called MSA; MouseSA
Method: SPR analyses were performed on a BIAcore 3000 instrument (GE Healthcare) using CM5 chips and immobilization of smFcRn-GST and shFcRn-GST variants or smFcRn was performed using the amine coupling kit (GE Healthcare). Protein samples (10 μg/ml) were injected in 10 mM sodium acetate at pH 4.5 (GE Healthcare), all as described by the manufacturer. Unreacted moieties on the surface were blocked with 1 M ethanolamine. For all experiments, phosphate buffer (67 mM phosphate buffer, 0.15 M NaCl, 0.005% TWEEN® 20) at pH 6.0 or pH 7.4, or HBS-P buffer (0.01 M HEPES, 0.15 M NaCl, 0.005% surfactant P20) at pH 7.4 were used as running buffer or dilution buffer. Kinetic measurements were performed using a low density immobilized surface (100-200 resonance units (RU)). […] In all cases, to correct for nonspecific binding and bulk buffer effects, responses obtained from the control surfaces and blank injections were subtracted from each interaction curve. Kinetic rate values were calculated using predefined models (Langmuir 1:1 ligand model, heterogeneous ligand model and steady state affinity model) provided by the BIAevaluation 4.1 software.
The KD's were generated using the B|Aevaluation 4.1 software) A Langmuir 1:1 ligand model was used throughout. The kinetic values represent the average or triplicates. ND means: Not determined. NA means: Not acquired

T1 sequence (P55899 24-290 limits assumed, chain 1 of 2): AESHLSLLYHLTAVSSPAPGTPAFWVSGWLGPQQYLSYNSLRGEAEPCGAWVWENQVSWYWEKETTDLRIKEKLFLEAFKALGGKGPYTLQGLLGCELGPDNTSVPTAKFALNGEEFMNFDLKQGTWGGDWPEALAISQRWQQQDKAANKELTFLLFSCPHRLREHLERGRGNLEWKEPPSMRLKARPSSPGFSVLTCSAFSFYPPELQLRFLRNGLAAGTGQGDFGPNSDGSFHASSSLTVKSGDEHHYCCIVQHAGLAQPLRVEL
T1 sequence (P61769 21-119 limits assumed, chain 2 of 2): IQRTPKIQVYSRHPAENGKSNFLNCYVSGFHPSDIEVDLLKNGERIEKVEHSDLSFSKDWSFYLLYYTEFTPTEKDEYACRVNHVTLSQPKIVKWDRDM

B1: donkey serum albumin (ligand, UniProt Q5XLE4 25-607, looked up)
chain: DTHKSEIAHRFNDLGEKHFKGLVLVAFSQYLQQCPFEDHVKLVNEVTEFAKKCAADESAENCDKSLHTLFGDKLCTVATLRATYGELADCCEKQEPERNECFLTHKDDHPNLPKLKPEPDAQCAAFQEDPDKFLGKYLYEVARRHPYFYGPELLFHAEEYKADFTECCPADDKAGCLIPKLDALKERILLSSAKERLKCSSFQKFGERAFKAWSVARLSQKFPKADFAEVSKIVTDLTKVHKECCHGDLLECADDRADLTKYICEHQDSISGKLKACCDKPLLQKSHCIAEVKEDDLPSDLPALAADFAEDKEICKHYKDAKDVFLGTFLYEYSRRHPDYSVSLLLRIAKTYEATLEKCCAEADPPACYATVFDQFTPLVEEPKSLVKKNCDLFEEVGEYDFQNALIVRYTKKAPQVSTPTLVEIGRTLGKVGSRCCKLPESERLPCSENHLALALNRLCVLHEKTPVSEKITKCCTDSLAERRPCFSALELDEGYIPKEFKAETFTFHADICTLPEDEKQIKKQSALAELVKHKPKATKEQLKTVLGNFSAFVAKCCGAEDKEACFAEEGPKLVASSQLALA
notes: mature
For B1, the “EC50 (read off the curve)” value [1] was ~1 µg/mL.

B2: soluble mouse FcRn (smFcRn) (receptor)
chain 1: SETRPPLMYHLTAVSNPSTGLPSFWATGWLGPQQYLTYNSLRQEADPCGAWMWENQVSWYWEKETTDLKSKEQLFLEALKTLEKILNGTYTLQGLLGCELASDNSSVPTAVFALNGEEFMKFNPRIGNWTGEWPETEIVANLWMKQPDAARKESEFLLNSCPERLLGHLERGRRNLEWKEPPSMRLKARPGNSGSSVLTCAAFSFYPPELKFRFLRNGLASGSGNCSTGPNGDGSFHAWSLLEVKRGDEHHYQCQVEHEGLAQPLTVDLDSSARSS
chain 2: IQKTPQIQVYSRHPPENGKPNILNCYVTQFHPPHIEIQMLKNGKKIPKVEMSDMSFSKDWSFYILAHTEFTPTETDTYACRVKHASMAEPKTVYWDRDM
For B2, the Kd [2] was 9.3 µM, the koff [2] was 0.0394 s⁻¹ and the kon [2] was 4200 M⁻¹ s⁻¹.
